Results on one molecule are retold here after paper PMC5041982 (2016).

The target in this assay is T1, EGFR pY1068 phosphododecapeptide dodecapeptide surrounding Y1068 (Homo sapiens, UniProt P00533).
T1 chain: LPVPE[pY]INQSVP
Nature of the assay: microscale thermophoresis.

Where no end group is shown, it is not given here. [ ]: non-standard residue; d: D form. pY = N[C@@H](Cc1ccc(OP(=O)(O)O)cc1)C(=O)O

What is called Kd is the equilibrium constant for the complex coming apart. The low end stands for higher affinity, the high end for lower affinity.

B1: STAT3 127-722 (protein)
chain: GQANHPTAAVVTEKQQMLEQHLQDVRKRVQDLEQKMKVVENLQDDFDFNYKTLKSQGDMQDLNGNNQSVTRQKMQQLEQMLTALDQMRRSIVSELAGLLSAMEYVQKTLTDEELADWKRRQQIACIGGPPNICLDRLENWITSLAESQLQTRQQIKKLEELQQKVSYKGDPIVQHRPMLEERIVELFRNLMKSAFVVERQPCMPMHPDRPLVIKTGVQFTTKVRLLVKFPELNYQLKIKVCIDKDSGDVAALRGSRKFNILGTNTKVMNMEESNNGSLSAEFKHLTLREQRCGNGGRANCDASLIVTEELHLITFETEVYHQGLKIDLETHSLPVVVISNICQMPNAWASILWYNMLTNNPKNVNFFTKPPIGTWDQVAEVLSWQFSSTTKRGLSIEQLTTLAEKLLGPGVNYSGCQITWAKFCKENMAGKGFSFWVWLDNIIDLVKKYILALWNEGYIMGFISKERERAILSTKPPGTFLLRFSESSKEGGVTFTWVEKDISGKTQIQSVEPYTKQQLNNMSFAEIIMGYKIMDATNILVSPLVYLYPDIPKEEAFGKYCRPESQEHPEADPGSAAPYLKTKFICVTPTTCSNTI
Molecule B1 showed a Kd of 1.1 nM.
